Laboratory results as given in US20150353933, “APTAMER AGAINST MIDKINE AND APPLICATIONS THEREOF” (RIBOMIC INC., published 2015).

T1: midkine (AP-MK) (Homo sapiens, UniProt P21741 P21741:23-143)
T1 chain: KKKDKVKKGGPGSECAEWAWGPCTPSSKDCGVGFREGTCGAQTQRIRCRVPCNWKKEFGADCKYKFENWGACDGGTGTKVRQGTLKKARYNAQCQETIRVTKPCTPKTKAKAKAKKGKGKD

T2: midkine (MK) (Homo sapiens, UniProt P21741 P21741:21-143)
T2 sequence: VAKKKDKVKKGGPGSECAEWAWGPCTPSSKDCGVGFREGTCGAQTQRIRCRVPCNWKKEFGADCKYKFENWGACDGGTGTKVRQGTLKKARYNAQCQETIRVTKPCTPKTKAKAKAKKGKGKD

B1: SEQ ID NO: 9 (mixed)
RNA: GCCAUCGCAAUGGUGAGUGGUUUAUCCGCCUGCGCAUGGCAAAAAAAAAAAAAAAA
modifications: 2'-OMe at 1-3 and 38-40; 2'-F at all other pyrimidines; 3' 16-nt poly dA (DNA)
B2: SEQ ID NO: 9-1 (mixed)
RNA: GCCAUCGCAAUGGUGAGUGGUUUAUCCGCCUGCGCAUGGCAAAAAAAAAAAAAAAA
modifications: 2'-OMe at C2,C3,C40 and RNA purines except G15,A16,G17,A24 (2'-OH); 2'-F at all other pyrimidines; 3' 16-nt poly dA (DNA)
B3: SEQ ID NO: 9-2 (mixed)
RNA: GCCAUCGCAAUGGUGAGUGGUUUAUCCGCCUGCGCAUGGCAAAAAAAAAAAAAAAA
modifications: 2'-OMe at C2,C3,C40 and RNA purines except A16,G17,A24 (2'-OH); 2'-F at all other pyrimidines; 3' 16-nt poly dA (DNA)
B4: SEQ ID NO: 4 (ssRNA)
RNA: GGGACACAAUGGACGUCUGUGUGGUUUAUCCGGAUGUCCGUCGUCCUCUGCCAUGUAACGGCCGACAUGAGAG
modifications: 2'-F pyrimidines; 16-nt poly A at 3' end for SPR
B5: SEQ ID NO: 9-3 (mixed)
RNA: GCCAUCGCAAUGGUGAGUGGUUUAUCCGCCUGCGCAUGGCAAAAAAAAAAAAAAAA
modifications: 2'-OMe at C2,C3,C40 and RNA purines except G15,G17,A24 (2'-OH); 2'-F at all other pyrimidines; 3' 16-nt poly dA (DNA)
B6: SEQ ID NO: 9-4 (mixed)
RNA: GCCAUCGCAAUGGUGAGUGGUUUAUCCGCCUGCGCAUGGCAAAAAAAAAAAAAAAA
modifications: 2'-OMe at C2,C3,C40 and RNA purines except G15,A16,A24 (2'-OH); 2'-F at all other pyrimidines; 3' 16-nt poly dA (DNA)
B7: SEQ ID NO: 9-5 (mixed)
RNA: GCCAUCGCAAUGGUGAGUGGUUUAUCCGCCUGCGCAUGGCAAAAAAAAAAAAAAAA
modifications: 2'-OMe at C2,C3,C40 and RNA purines except G15,A16,G17 (2'-OH); 2'-F at all other pyrimidines; 3' 16-nt poly dA (DNA)
B8: SEQ ID NO: 10 (ssRNA)
RNA: GCUCGCAAUGGUGAGUGGUUUAUCCGCCUGCGCAGC
modifications: 3' idT; 2'-OMe at 1-11,17,18,21,26,28-36; 2'-F at U12,U16,U19,U20,U23,C24,C25,C27; 2'-OH at G13,A14,G15,A22
B9: SEQ ID NO: 11 (ssRNA)
RNA: GCGCAAUGGUGAGUGGUUUAUCCGCCUGCGC
modifications: 3' idT; 2'-OMe at 1-10,12,15,16,19,24,26-31; 2'-F at U14,U17,U18,U21,C22,C23,C25; 2'-OH at G11,G13,A20
B10: SEQ ID NO: 11-1 (ssRNA)
RNA: GCGCAAUGGUGAGUGGUUUAUCCGCCUGCGC
modifications: 3' idT; 2'-OMe at 1-10,12,15,16,19,23-31; 2'-F at U14,U17,U18,U21,C22; 2'-OH at G11,G13,A20
B11: SEQ ID NO: 12 (ssRNA)
RNA: CGCAAUGGUGAGUGGUUUAUCCGCCUGCG
modifications: 3' idT; 2'-OMe at 1-8,14,15,18,23,25-29; 2'-F at U9,U13,U16,U17,U20,C21,C22,C24; 2'-OH at G10,A11,G12,A19
B12: SEQ ID NO: 5 (ssRNA)
RNA: GGGACACAAUGGACGUCUGUGUGGUUUAUCCGGAUGUCCGUCGUCCUCGGUCAUGUAACGGCCGACAUGAGAG
modifications: 2'-F pyrimidines; 16-nt poly A at 3' end for SPR
B13: SEQ ID NO: 8-1 (ssRNA)
RNA: GUCUGUGUGGUUUAUCCGGAC
modifications: 2'-OMe at G1,G9,G10,U13,G18,G19,A20; 2'-F at all other pyrimidines; 2'-OH at G5,G7,A14
B14: SEQ ID NO: 6 (ssRNA)
RNA: GGGACACAAUGGACGUCUGUGUGGUUUAUCCGGACGUCCGUCGUCCUCUGUCGUGUAACGGCCGACAUGAGAG
modifications: 2'-F pyrimidines; 16-nt poly A at 3' end for SPR

Legend:
midkine (AP-MK) [1] = molecular target: T1, midkine (AP-MK); assay: inhibition; AP-MK binding to HepG2 cells; details: tags: alkaline phosphatase fusion, APtag-5 vector (GenHunter), 293T culture supernatant
Method: (§1) Using the above-mentioned AP-MK, a binding inhibitory experiment relative to TNB1 cell, which is a human neuroblastoma cell, was performed. TNB1 cells were seeded at 1×10⁵ cells/well on a 6-well plate coated with collagen I. The next day, the cells were washed with 1 mL of HBHA (HBSS+0.5 mg/mL BSA+20 mM HEPES pH 7.0), 1 U/mL AP or AP-MK, and further, the aptamer shown in SEQ ID NO: 7-1 at a final concentration of 100 nM were added and the mixture was maintained at room temperature for 90 min. After washing 5 times with 1 mL of HBHA, 200 μL of Cell Lysis Buffer (manufactured by GenHunter) was added and the mixture was stirred for 5 min. The cells were scraped with a Scraper and placed in an Eppendorf tube, vortexed for 10 sec and centrifuged at 15000 rpm for 2 min. The supernatant was recovered, and heated at 65° C. for 10 min to inactivate endogenous AP. Using 50 μL, color development was performed in the same manner as above (15 min) and the activity of AP was calculated.
An altered form of SEQ ID NO: 7-1 was produced, and AP-MK binding inhibitory experiment was performed using HepG2 and TNB1 cells and in the same manner as above. The sequences of the altered forms actually produced are shown below. While Poly dA for BIAcore measurement is added to the 3′-terminus of the aptamers shown in SEQ ID NO: 9 and SEQ ID NO: 9-1-5, an influence on the activity is not expected. The 50% inhibitory concentration (IC₅₀) was determined from the concentrations at two, above and below points sandwiching the 50% inhibitory activity (Table 2).

midkine (MK) [2] = molecular target: T2, midkine (MK); assay: SPR; strongly binds; 0.5 uM MK analyte; solution A; details: tags: produced in yeast
Method: (§2) The binding activities of the oligonucleotides shown by SEQ ID NO:1 to 6 obtained in Examples 1 and 2 for MK were evaluated by a surface plasmon resonance method. The measurements were performed using BIAcore2000, manufactured by BIAcore. The sensor chip used was the SA chip, which had streptavidin immobilized thereon. Bound thereto was about 1000 RU of a 16-nucleotide Poly dT with biotin bound to the 5′ end thereof. […] 70 μL of MK for analyte, prepared at 0.5 μM, was injected.

midkine (MK) [3] = molecular target: T2, midkine (MK); assay: SPR; confirmed MK binding, as in Example 3; details: tags: produced in yeast
Method: as §2
Those aptamers were evaluated by the surface plasmon resonance method in the same manner as in Example 3, and they were confirmed to have MK binding activity.

midkine (AP-MK) [4] = molecular target: T1, midkine (AP-MK); assay: inhibition; AP-MK binding to HepG2, 500 nM aptamer; details: tags: alkaline phosphatase fusion, APtag-5 vector (GenHunter), 293T culture supernatant
Method: as §1
An experiment similar to the above was performed using HepG2 cells which are human liver cancer-derived cells. It is already known that MK is deeply involved in the growth and inhibition of apoptosis of HepG2 cells (Ohuchida et al., Cancer 100, 2430-2436, 2004; Dai et al., World J. Gastroenterol. 15, 1966-1972, 2009). When the aptamer was added to the system, the binding of AP-MK and HepG2 was inhibited (Table 1).

Binder	IC50 (midkine (AP-MK) [1]) [nM]	also measured
B1	3.3	
B2	1.6	
B3	13	
B4		binding result (midkine (MK) [2]): binds
B5	3	
B6	4.1	
B7	19	
B8	< 2	
B9	6.3	
B10	7.8	
B11	< 2	
B12		binding result (midkine (MK) [2]): binds
B13		binding result (midkine (MK) [3]): binds; activity (midkine (AP-MK) [4]): 76 % inhibition
B14		binding result (midkine (MK) [2]): binds
GCCAUCGCAAUGGUGAGUGGUUUAUCCGCCUGCGCAUGGC (ssRNA, 2'-F pyrimidines) [SEQ ID NO: 7]		binding result (midkine (MK) [3]): binds
GUCUGUGUGGUUUAUCCGGAC (ssRNA, 2'-F pyrimidines) [SEQ ID NO: 8]		binding result (midkine (MK) [3]): binds
